Here are results for twelve molecules from patent US20210261685A1 (Alector, published 2021).

B1: MTK-10 (antibody, human IgG1, V domains shown)
VH: QVTLKESGPGILQPSQTLSLTCSFSGFSLTTSGMGVGWIRQPSGKGLEWLAHIWSDDDKRSNPALKSRLTISQDSSTNQVFLKIASVDTADSATYYCSHLTPVREFAYWGPGTLVTVSE
VL: DIQMTQTTSSLSASLGDRVTISCSASQGISNYLNWFQQKPDGTVKLLIYYTSRLHSGVPSRFSGSGSGTDFSLTISNLEPEDIATYYCQQYTKLPYTFGGGTKLEIK
B2: MTK-24 (antibody, human IgG1, V domains shown)
VH: QVQLQQPGAELVKPGASVKLSCKASGYTFTSYWMHWVKQRPGQGLEWIGMIHPNINTNYNEKFKSKATLTVDISSSTAYMQLSSLTSEDSAVYYCAKRSPYSNYDWYFDVWGTGTTVTVSS
VL: DIQMTQSPASLSVSVGETVTITCRASENIYSNLAWYQQKQGKSPQLLVYAATNLADGVPSRFSGSGSGTQYSLKINSLQSEDFGSYYCQHFWGTPLTFGAGTKLELK
B3: MTK-13 (antibody, human IgG1, V domains shown)
VH: DVQLQESGPGLVKPSQSLSLTCSVTGYSITSGYYWNWIRQFPGNKLEWMGNIDYDGSNKYNPSLKNRISITRDTSKNHFFLKLNSVTPEDTATYFCARDGGNYRSFAYWGQGTLVTVSA
VL: QIVLTQSPPIMSASPGEKVTITCSASSSVSYMYWFQQKPGTSPKLWIYSTFNLASGVPARFSGSGSGTSYSLTISRMEAEDVATYYCQQRSSYPFTFGSGTKLEIK
B4: MTK-28 (antibody, human IgG1, V domains shown)
VH: QIQLVQSGPELKKPGETVKISCKASGYTFTTYGMSWVKQAPGKGLKWMGWINTYSGVPTYADDFKGRFAFSLETSASTAYLQINTLKNEDTTTYFCARFLRYYYFDYWGQGTTLTVSS
VL: QIVLSQSPVILSASPGEKVTMTCRASSSVTYMHWYQQQPGSSPKPWIYATSNLASGVPARFSGSGSGTSYSLTISRVETEDAATYYCHQWSGNPTFGGGTKLEIN
B5: MTK-21 (antibody, human IgG1, V domains shown)
VH: QIQLVQSGPELKKPGETVKISCKASGYTFTNFGMTWVRQAPGMDLKWMGWINTYTGEPKYADDFKGRFALSLETSASTAYLQITNFKNEDTATYFCARGGGRLGLRPLDYWGQGTTLTVSS
VL: DIQMTQTTSSLSASLGDRVTISCRASQDINNYLNWYQQKPDGTVKLLIYYTSSLHSGVPSRFSGSGSGTDYSLTITNLEQEDIATYFCQQGNTLPWTFGGGTRLEIK
B6: MTK-02 (antibody, human IgG1, V domains shown)
VH: QIQLVQSGPELKQPGETVKISCKASGYTFTDYGVNWVKQAPGKGLKWMGWINTYSGEPTYAGDFKGRFAFSLESSASTAFLQINNLKNEDMATYFCARRVRYWYFDVWGAGTSVTVSS
VL: QIVLSQSPAILSASPGERVTMTCRANSSVSYMHWYQQKPGSSPKPWIYATSNLASGVPARFSASGSGTSYSLTVSRVEAEDAATYYCQQWGSNPFTFGSGTKLEIK
B7: MTK-04 (antibody, human IgG1, V domains shown)
VH: QIQLVQSGPELKKPGETVKISCKASGYTFTNYGMNWVKQAPGKGLKCMGWINTYTGEPTYADDFKGRFAFSLETSASTAYLQINNLKNEDMATYFCAKYDNYAWFAYWGQGTLVTVSA
VL: QIVLSQSPAFLSASPGEKVTMTCRASSSVSYMHWYLQKPGSSPKPWIYATSNLASGVPVRFSGSGSGTSYSLTISRVEAEDAATYYCQQWSSNPRTFGGGTKLEIR
B8: MTK-32 (antibody, human IgG1, V domains shown)
VH: QIQLVQSGPELKKPGETVKISCKASGYTFTSYGMSWVHQAPGKGLKWLGWINTYSGVPTYADDFRGRFAFSLDTSVSTASLEINNLQNEDTATYFCAREDNWAWFAYWGQGTLVTVST
VL: B7 VL with F10I, S26T, S30G, L36Q, Q37R, V59A, R106K
B9: MTK-06 (antibody, human IgG1, V domains shown)
VH: QIQLVQSGPELKKPGETVKISCKASGYTFTNYGMNWVKQAPGKGLKWMGWINTNTGEPTYAEEFKGRFAFSLETSASTAYLQINNLKNEDTATYFCARYYNYWYFDVWGAGTTVTVSS
VL: B7 VL with F10I, L36Q, V59A, N93K, R95P, R106K
B10: MTK-14 (antibody, human IgG1, V domains shown)
VH: B7 VH with G44D, K46Q, C47W, K65T, M91T, Y99G, D100G, N101H
VL: B7 VL with F10I, A25S, L36Q, V59G, S91G, R106K
B11: MTK-08 (antibody, human IgG1, V domains shown)
VH: B9 VH with N54Y, E62D, E63D, Y99E, Y100V, N101R
VL: B7 VL with F10I, S26T, Y35F, L36Q, V59A, T84A, Q89H, S92G, R106K
B12: MTK-31 (antibody, human IgG1, V domains shown)
VH: QIQLVQSGPELKKSGETVKISCKASGYTFTSYGMSWVKQAPGKGLKWMGWINTYSGVPTYADDFKGRFAFSLETSASTAYLQINNLKNEDTATYFCASLSYDGSLYHAMDYWGQGTSVTVSS
VL: DVSMTQTPLSLPVSLGDQASISSRSSQTIVHSNGNTYLEWYLQKPGQSPKLLIYKVSNRFSGVPDRFSGSGSGTDFTLKISRVEAEDLGVYYCFQGSHVPWTFGGGTKLEIK

Positions count from the first letter of the chain named.

The target in one test is T1, human MerTK endogenously expressed on cells (SK-MEL-5 cells; human macrophages) (human, UniProt Q12866 21-999).
T1 construct: also called MerTK on SK-MEL-5
T1 sequence: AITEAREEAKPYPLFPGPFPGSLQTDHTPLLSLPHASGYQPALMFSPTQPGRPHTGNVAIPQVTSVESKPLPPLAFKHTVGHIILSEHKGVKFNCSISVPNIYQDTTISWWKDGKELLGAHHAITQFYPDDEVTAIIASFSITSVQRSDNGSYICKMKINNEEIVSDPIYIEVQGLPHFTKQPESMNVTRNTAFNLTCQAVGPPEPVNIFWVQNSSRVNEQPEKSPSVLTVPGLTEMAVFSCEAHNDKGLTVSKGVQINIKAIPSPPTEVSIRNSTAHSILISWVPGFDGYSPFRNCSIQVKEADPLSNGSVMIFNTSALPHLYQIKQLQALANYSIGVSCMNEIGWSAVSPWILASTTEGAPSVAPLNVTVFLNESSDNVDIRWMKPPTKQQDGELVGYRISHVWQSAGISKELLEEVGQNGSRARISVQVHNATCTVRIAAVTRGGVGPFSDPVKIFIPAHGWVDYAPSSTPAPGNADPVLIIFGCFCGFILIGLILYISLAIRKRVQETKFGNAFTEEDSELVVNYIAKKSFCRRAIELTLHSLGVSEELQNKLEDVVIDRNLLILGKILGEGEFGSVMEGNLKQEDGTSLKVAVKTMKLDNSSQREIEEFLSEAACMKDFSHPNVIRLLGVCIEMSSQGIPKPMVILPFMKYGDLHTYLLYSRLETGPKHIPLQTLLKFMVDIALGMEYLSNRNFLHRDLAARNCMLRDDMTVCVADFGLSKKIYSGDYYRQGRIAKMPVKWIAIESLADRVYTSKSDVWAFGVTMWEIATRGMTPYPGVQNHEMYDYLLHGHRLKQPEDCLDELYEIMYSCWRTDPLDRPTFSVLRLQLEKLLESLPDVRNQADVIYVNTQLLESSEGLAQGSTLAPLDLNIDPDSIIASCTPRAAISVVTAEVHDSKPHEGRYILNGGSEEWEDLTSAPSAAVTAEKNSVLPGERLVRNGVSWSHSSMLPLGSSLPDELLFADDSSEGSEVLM
Kind of test: flow cytometry on SK-MEL-5 cells, Prism fit. On the procedure:
To determine whether recombinant anti-human MerTK antibodies of the present disclosure bind to human MerTK endogenously expressed on SK-MEL-5 cells and to CHO cells overexpressing mouse MerTK (CHO-muMerTK OE cells), the following experiments were performed. SK-MEL-5 cells and CHO-muMerTK OE cells were plated at 40,000 cells/well. Anti-MerTK antibodies were titrated to a final concentration range of between 66.6 nM to 4 pM and then added to the cells. After 30 min on ice, cells were washed and then stained with APC-conjugated mouse anti-human Kappa antibody (Southern Biotech Cat #9230-11, Birmingham, Ala.) and a viability die (Life Technologies) in the presence of Fc block solution on ice for 30 minutes, and then washed twice with cold FACS buffer (2% FBS in PBS). Cells were fixed with 4% paraformaldehyde in PBS. Stained cells were acquired on a BD FACS Canto II cytometer and the mean fluorescence intensity (MFI) was calculated with FlowJo software and K value was calculated with Prism software. […] A lower Kd value reflects higher binding of antibody to cells.
Background: Flow cytometry measures light scatter and fluorescence of single cells or particles in a stream.
What is called Kd is the constant that tells how readily two partners part at equilibrium. B1 had a Kd of 0.076 nM.

In turn, B2 showed a Kd of 0.59 nM.

Turning to B3, the Kd was determined as 0.68 nM.

Regarding B4, binding was put at a Kd of 0.52 nM.

In turn, B5 displayed a Kd of 23.4 nM.

On to B6, for which binding was characterised by a dissociation constant (Kd) of 0.024 nM. This Kd lies about 970-fold lower than the previous one.

B7 gave a Kd of 0.037 nM.

Consider B8, for which binding was put at a Kd of 0.4 nM.

As for B9, binding was put at a Kd of 0.005 nM.

The molecule B10 yielded a Kd of 0.021 nM.

For the molecule B11, the affinity, expressed as Kd, was 0.079 nM.

A further test has as its target T2, Recombinant human MerTK human Fc Chimera protein (R&D systems, Cat #391-MR-100) (human, UniProt Q12866 26-499, limits assumed).
T2 construct: Bought; also called recombinant human MerTK protein; MerTK-Fc
T2 sequence: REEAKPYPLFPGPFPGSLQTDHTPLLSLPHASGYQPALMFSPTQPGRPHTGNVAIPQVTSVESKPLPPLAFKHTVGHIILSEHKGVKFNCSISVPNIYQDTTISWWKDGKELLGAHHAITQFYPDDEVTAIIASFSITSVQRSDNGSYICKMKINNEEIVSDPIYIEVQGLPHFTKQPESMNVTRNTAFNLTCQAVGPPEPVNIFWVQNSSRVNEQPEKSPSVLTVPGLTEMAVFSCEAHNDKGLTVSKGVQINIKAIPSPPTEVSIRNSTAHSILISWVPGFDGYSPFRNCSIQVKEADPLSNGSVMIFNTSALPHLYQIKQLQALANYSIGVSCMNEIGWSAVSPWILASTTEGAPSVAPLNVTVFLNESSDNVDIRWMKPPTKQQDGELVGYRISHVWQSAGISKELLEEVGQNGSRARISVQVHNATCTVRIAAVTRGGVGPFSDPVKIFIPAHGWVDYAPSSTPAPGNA
Kind of test: competition ELISA, His-Gas6 on captured MerTK-Fc. On the procedure:
(§1) Rabbit anti-human IgG polyclonal antibody (Jackson ImmunoResearch, Cat #309-005-008) was captured to a high-protein binding plate at 2 μg/ml 4° C. overnight. After washing with 0.05% Tween20 in PBS three times, 5% BSA in PBS was added for 1 hour. Recombinant human MerTK human Fc Chimera protein (R&D systems, Cat #391-MR-100) was added at 2 μg/ml for 1 hour and the plates were then washed. Anti-MerTK antibodies were titrated to final concentration range of between 66.6 nM to 4 pM and then 40 μl of serially diluted antibody and 40 μl of His tag-conjugated recombinant Gas6 protein (R&D systems, Cat #885-GSB-050) at 3 μg/ml or His tag-conjugated recombinant ProS protein (R&D systems, Cat #9489-PS-100) at 20 μg/ml. After a further incubation for 1 hour, plates were washed and incubated for 1 hour with HRP-conjugated anti-6×His tag antibody (Abcam, Cat #ab1187). Plates were then washed and an HRP substrate (TMB) was used to develop the plates. After sufficient color change was observed, the reaction was stopped by adding 50 μl 2N H₂SO₄ and the OD was measured using a spectrophotometer (BioTek).
(§2) From these experiments, IC50 values [nM] were determined using OD450 values obtained from the dose-response curves analyzed with Prism software. Table 14 and Table 15 show IC50 values determined for anti-MerTK antibody blocking of Gas6 ligand binding and ProS ligand binding to MerTK. […] Dashes indicate lack of significant blocking; “n.a.” indicates data not available.
(In general: In an ELISA, binding on a coated surface is turned into a signal by an enzyme label.)
In general, IC50 refers to the concentration that gives 50% inhibition. Consider B12, for which the 50% inhibitory concentration (IC50) amounted to 1.29 nM.

On to B1, for which the IC50 is 32.4 nM.

Take B2: the half-maximal inhibitory concentration (IC50) was determined as 0.74 nM.

Consider B3, for which the IC50 was 18.9 nM.

Turning to B5, the IC50 is 5.98 nM.

The target in a further test is T2, Recombinant human MerTK human Fc …. Kind of test: competition ELISA, His-ProS on captured MerTK-Fc. On the procedure:
as §1, §2
B1: the IC50 stood at 3.8 nM.

As to B2, the IC50 is 0.579 nM.

On to B3, for which the IC50 is 3.76 nM.

Take B4: the IC50 came to 2.78 nM.

With B5, the IC50 is 13.5 nM.

For the molecule B6, the IC50 worked out at 3.94 nM.

Turning to B7, the IC50 was 12.8 nM.

On to B8, for which the IC50 turned out to be 2.78 nM.

With B9, the IC50 turned out to be 2.17 nM.

As to B10, the IC50 was found to be 7.61 nM.

As to B11, the IC50 was 3.8 nM.
